In the data set the test system is Saccharomyces cerevisiae. Description: protein stability index of tFT-peptide fusion (C-terminal peptide) (PSI (0-1 scale)); higher = more stable (slower turnover). As to conditions: temperature: 30 C. The method, then: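 MPS profiling in S. cerevisiae of the yeast C-terminome library: the last 12 aa of each annotated ORF are fused to the C-terminus of a sfGFP-mCherry timer, after a GGGS linker. Cells are FACS-sorted into 8 mCherry/sfGFP bins and deep-sequenced. PSI runs from 0 (unstable) to 1 (stable); wild type and das1Δ backgrounds, two technical replicates each.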

[1] abbreviates: genetic background: das1 deletion.

± gives the standard deviation of the averaged measurements.

Turning to PFALPSNDKVFF [ATO2 C-terminal 12 aa], the protein stability index under setting [1] is 0.698 ± 0.027 and the protein stability index (genetic background: wild type) turned out to be 0.731 ± 0.0052.
The like results for PFIFKTLEEQGL [CCP1 C-terminal 12 aa] were, in that order, 0.743 ± 0.06 and 0.691 ± 0.065.
As for PFLEKLTLSGLL [CDC45 C-terminal 12 aa], the protein stability index under setting [1] amounted to 0.714 ± 0.0059 and the protein stability index (genetic background: wild type) was found to be 0.694 ± 0.0088.
PFPQKHRDNHLV [YOR053W C-terminal 12 aa] returned a protein stability index under setting [1] of 0.701 ± 0.025 and a protein stability index (genetic background: wild type) of 0.711 ± 0.012.
As to PGPISFLPVIPI [YLR402W C-terminal 12 aa], the protein stability index is, setting by setting: under setting [1], 0.7092 ± 0.0061; (genetic background: wild type) 0.744 ± 0.12.
The like results for PHEAALPKPSFV [EDC2 C-terminal 12 aa] were, in that order, 0.7069 ± 0.0042 and 0.719 ± 0.038.
The like results for PHSQNEILQYYL [NAT1 C-terminal 12 aa] were, in that order, 0.705 ± 0.0095 and 0.722 ± 0.065.
The like results for PHYKPRDGSQVE [SPT4 C-terminal 12 aa] were, in that order, 0.69 ± 0.011 and 0.65 ± 0.0097.
For PICIVGNFIPLS [RDS2 C-terminal 12 aa], the protein stability index came out at 0.689 ± 0.024 under setting [1] and 0.722 ± 0.024 (genetic background: wild type).
Taken in the same sequence, the figures for PICKLLEEEERG [ALG11 C-terminal 12 aa] were 0.7 ± 0.011 and 0.699 ± 0.041.
For PINDRKYPNQCH [SPR1 C-terminal 12 aa], the protein stability index runs as follows: under setting [1], 0.715 ± 0.028; (genetic background: wild type) 0.6948 ± 0.0011.
For the sequence PIQQSIAHINPP [LDS2 C-terminal 12 aa], the protein stability index was 0.718 ± 0.0075 under setting [1] and 0.6902 ± 0.0066 (genetic background: wild type).
Consider PKDLTSLLEWKE [CLA4 C-terminal 12 aa], for which the protein stability index by setting is: under setting [1], 0.7005 ± 0.006; (genetic background: wild type) 0.681 ± 0.044.
For PLSKMEDQVFVF [CBR1 C-terminal 12 aa], the protein stability index under setting [1] came to 0.663 ± 0.036 and the protein stability index (genetic background: wild type) was found to be 0.657 ± 0.027.
Take PQFKYRADFLII [APE3 C-terminal 12 aa]: the protein stability index came to 0.664 ± 0.011 under setting [1] and 0.676 ± 0.037 (genetic background: wild type).
The like results for PQRTKIQAFNTL [MRP1 C-terminal 12 aa] were, in that order, 0.70194 ± 0.0001 and 0.675 ± 0.029.
With PRGQDTEDHILE [PIF1 C-terminal 12 aa], the protein stability index is, setting by setting: under setting [1], 0.725 ± 0.02; (genetic background: wild type) 0.692 ± 0.0098.
The like results for PRLKAKKKVTKP [TFB4 C-terminal 12 aa] were, in that order, 0.6873 ± 0.003 and 0.67 ± 0.012.
With PSENFATKAKLP [YDR187C C-terminal 12 aa], the protein stability index runs as follows: under setting [1], 0.7507 ± 0.0029; (genetic background: wild type) 0.71 ± 0.025.
The like results for PSIQHDYTMEGW [ATG3 C-terminal 12 aa] were, in that order, 0.72275 ± 0.00032 and 0.6562 ± 0.0032.
Take PSPYYVSEVPVS [Q0010 C-terminal 12 aa]: the protein stability index by setting is: under setting [1], 0.6371 ± 0.0047; (genetic background: wild type) 0.6238 ± 0.0025.
Consider PSSEEDILHDEL [LHS1 C-terminal 12 aa], for which the protein stability index by setting is: under setting [1], 0.68 ± 0.046; (genetic background: wild type) 0.692 ± 0.034.
PSVSRKTPDYFL [PPH21 C-terminal 12 aa]: the protein stability index under setting [1] came to 0.701 ± 0.053 and the protein stability index (genetic background: wild type) came out at 0.7 ± 0.032.
In the case of PSYEMRYNKNER [YBL065W C-terminal 12 aa], the protein stability index by setting is: under setting [1], 0.7137 ± 0.0027; (genetic background: wild type) 0.715 ± 0.0081.
The like results for PTQPTVSNKKNN [GPI14 C-terminal 12 aa] were, in that order, 0.7252 ± 0.0055 and 0.68 ± 0.022.
Taken in the same sequence, the figures for PVHLQTVGLVDC [PIR5 C-terminal 12 aa] were 0.623 ± 0.032 and 0.672 ± 0.058.
Taken in the same sequence, the figures for PYKSTELRSVAN [YDL187C C-terminal 12 aa] were 0.671 ± 0.04 and 0.742 ± 0.048.
With “QAKFFYQDLMSL [YHL046W-A C-terminal 12 aa]”, the protein stability index under setting [1] came to 0.72 ± 0.038 and the protein stability index (genetic background: wild type) was 0.739 ± 0.052.
Taken in the same sequence, the figures for QAQLTAATNAKQ [PDC5 C-terminal 12 aa] were 0.6916 ± 0.0017 and 0.731 ± 0.069.
Regarding QDEDEDEDIEMQ [RAD3 C-terminal 12 aa], the protein stability index by setting is: under setting [1], 0.6935 ± 0.0052; (genetic background: wild type) 0.705 ± 0.057.
Taken in the same sequence, the figures for QDYVKDRHHGLK [NUP157 C-terminal 12 aa] were 0.698 ± 0.01 and 0.679 ± 0.043.
The like results for QEPVIDPGTVVV [MRPL3 C-terminal 12 aa] were, in that order, 0.6775 ± 0.0024 and 0.676 ± 0.011.
Take “QEQQNLRQKQPN [YBL029C-A C-terminal 12 aa]”: the protein stability index is 0.704 ± 0.01 under setting [1] and 0.7093 ± 0.0059 (genetic background: wild type).
The like results for QESTLETTQKED [AFI1 C-terminal 12 aa] were, in that order, 0.703 ± 0.032 and 0.666 ± 0.018.
In the case of QETAISVAKLFK [RPT6 C-terminal 12 aa], the protein stability index runs as follows: under setting [1], 0.684 ± 0.007; (genetic background: wild type) 0.7079 ± 0.007.
The like results for QFAQDTLKNFVQ [SAM35 C-terminal 12 aa] were, in that order, 0.733 ± 0.022 and 0.713 ± 0.03.
The like results for QGRQGFNGGSRW [YNL208W C-terminal 12 aa] were, in that order, 0.706 ± 0.025 and 0.681 ± 0.028.
Taken in the same sequence, the figures for QKARDFSRSVVH [ARO2 C-terminal 12 aa] were 0.696 ± 0.00098 and 0.698 ± 0.021.
On to QKTAQQKNCSIM [YNL234W C-terminal 12 aa], for which the protein stability index amounted to 0.746 ± 0.018 under setting [1] and 0.721 ± 0.019 (genetic background: wild type).
QLAIALSLSEIN [UFO1 C-terminal 12 aa] returned a protein stability index under setting [1] of 0.694 ± 0.011 and a protein stability index (genetic background: wild type) of 0.714 ± 0.035.
The like results for QLISTPIKDNEH [KIC1 C-terminal 12 aa] were, in that order, 0.693 ± 0.018 and 0.682 ± 0.031.
The like results for QLKLLNALDSVD [YDR537C C-terminal 12 aa] were, in that order, 0.696 ± 0.011 and 0.757 ± 0.069.
The like results for QLLNDSPLEDKF [FBP26 C-terminal 12 aa] were, in that order, 0.711 ± 0.026 and 0.7 ± 0.026.
For the sequence QLMYEQDDEEVP [HAP3 C-terminal 12 aa], the protein stability index reads like this: under setting [1], 0.718 ± 0.015; (genetic background: wild type) 0.64582 ± 0.00022.
Consider QNARAAFKSTLV [YDR514C C-terminal 12 aa], for which the protein stability index by setting is: under setting [1], 0.707 ± 0.012; (genetic background: wild type) 0.698 ± 0.044.
The like results for QPSSASCLFILI [AHT1 C-terminal 12 aa] were, in that order, 0.716 ± 0.023 and 0.696 ± 0.055.
The like results for QQFYKDVYAMQD [THI2 C-terminal 12 aa] were, in that order, 0.74 ± 0.018 and 0.6413 ± 0.001.
On to QSLPPTLKVNRL [RPL38 C-terminal 12 aa], for which the protein stability index is, setting by setting: under setting [1], 0.672 ± 0.012; (genetic background: wild type) 0.65859 ± 0.00042.
On to QTAISMNDEDDA [GVP36 C-terminal 12 aa], for which the protein stability index amounted to 0.712 ± 0.013 under setting [1] and 0.7006 ± 0.0018 (genetic background: wild type).
The like results for QTLDSEYNTILQ [GAT2 C-terminal 12 aa] were, in that order, 0.704 ± 0.024 and 0.742 ± 0.073.
For the sequence “QTSGTFLHFSRP [YEL075W-A C-terminal 12 aa]”, the protein stability index was found to be 0.712 ± 0.01 under setting [1] and 0.718 ± 0.062 (genetic background: wild type).
Taken in the same sequence, the figures for QTSKGPENLQFS [RAD53 C-terminal 12 aa] were 0.71 ± 0.05 and 0.723 ± 0.018.
Taken in the same sequence, the figures for QVNKPGPLTVPF [MEH1 C-terminal 12 aa] were 0.702 ± 0.015 and 0.716 ± 0.018.
The like results for QWMNEMVERWAN [SOH1 C-terminal 12 aa] were, in that order, 0.707 ± 0.0074 and 0.7 ± 0.0099.
For the sequence RAKTMNRSQSHV [PFK26 C-terminal 12 aa], the protein stability index came to 0.697 ± 0.0089 under setting [1] and 0.7255 ± 0.0013 (genetic background: wild type).
As to RAYCVGFKWVRF [MCH5 C-terminal 12 aa], the protein stability index was 0.675 ± 0.02 under setting [1] and 0.145 ± 0.028 (genetic background: wild type).
Taken in the same sequence, the figures for RDWSSFSKDYEI [PMS1 C-terminal 12 aa] were 0.7561 ± 0.0022 and 0.699 ± 0.0094.
Taken in the same sequence, the figures for RGRIAAQKRIAA [RPL17A C-terminal 12 aa] were 0.667 ± 0.0084 and 0.604 ± 0.045.
For the sequence RKFFKRMTNFWC [TAT1 C-terminal 12 aa], the protein stability index by setting is: under setting [1], 0.7409 ± 0.0066; (genetic background: wild type) 0.436 ± 0.025.
The like results for RKRFSYTQTKNK [RSM19 C-terminal 12 aa] were, in that order, 0.678 ± 0.013 and 0.66787 ± 0.00059.
For RKSKRVLPVSKF [PET309 C-terminal 12 aa], the protein stability index reads like this: under setting [1], 0.783 ± 0.0088; (genetic background: wild type) 0.794 ± 0.087.
Taken in the same sequence, the figures for RLIFYPDEYEQL [PRE3 C-terminal 12 aa] were 0.743 ± 0.012 and 0.736 ± 0.071.
Taken in the same sequence, the figures for RLKPRQIVPKRS [SLI15 C-terminal 12 aa] were 0.7194 ± 0.0028 and 0.724 ± 0.054.
The like results for RLKSQNVVTYYK [NIP100 C-terminal 12 aa] were, in that order, 0.707 ± 0.032 and 0.692 ± 0.015.
Regarding RLSRWFNETENI [MEI4 C-terminal 12 aa], the protein stability index amounted to 0.756 ± 0.043 under setting [1] and 0.727 ± 0.096 (genetic background: wild type).
The like results for RMLMGTTKRGRF [YAL037W C-terminal 12 aa] were, in that order, 0.704 ± 0.02 and 0.6898 ± 0.0036.
The like results for RNVDKLDVFSNS [MRM2 C-terminal 12 aa] were, in that order, 0.716 ± 0.019 and 0.727 ± 0.037.

Values taken from the supplement of paper PMC10724198.
